Data on one molecule can be found in article PMC4764579, “Structural insights into the mechanism of activation of the TRPV1 channel by a membrane-bound tarantula toxin” (eLife, 2016).

One series has as its target T1, rTRPV1 (Rattus norvegicus, UniProt O35433).
T1 construct: preserved in the full-length construct used for our functional studies; expressed in transfected cells; host or cells: HEK293
Description: Whole-cell patch clamp recordings of TRPV1 activation by toxins in transiently transfected HEK293 cells. The format is cell-based. From the text: Figure 3. Validation of the proposed structural model of the TRPV1-DkTx complex. Close-up of K1 (A) and K2 (B) in the top-ranking ROSETTA model of DkTx bound to TRPV1. Side chains of TRPV1 residues where mutation disrupts DkTx-induced channel activation (I599, F649, A657 and F659) ([Bohlen et al., 2010]) are highlighted in purple. (C) Representative time courses of TRPV1 activation at +120 mV by either DkTx (left panel), K1K1 (middle panel) or K2K2 (right panel) measured from a train of voltage-ramps in the whole-cell configuration with the TRPV1 expressed in HEK cells. […] Fractional dissociation 1 min after toxin removal was quantified across cells as the current amplitude 1 min after toxin removal divided by the steady-state current amplitude in the presence of the toxin. […] Activation of the full-length TRPV1 channel by the toxin at different concentrations was measured in oocytes at a holding voltage of −60 mV. […]
Figure 7. […] Currents were measured every 3 s by applying voltage-ramps of 1 s duration from −120 to +140 mV starting at a holding potential of −90 mV. Currents were recorded under constant perfusion with control solution or with the test solutions containing either NMDG^+ instead of Na^+ as permeant ion (gray), or the K2 toxins together with 130 mM NaCl (black and blue), as indicated by the continuous horizontal lines. […]
In general terms: In patch-clamp work, channel activity is measured electrically.

Series [1] can be described thus: Membrane partitioning of toxins into lipid vesicles measured using Trp fluorescence. It is filed as physicochemical. From the text: Motivated by the amphipathic character evident in the structure of DkTx, together with the placement of the toxin at the protein-lipid interface when bound to TRPV1, we investigated the interaction of DkTx and each of its two lobes with lipid membranes. For these experiments, we took advantage of the presence of a single conserved and solvent accessible Trp residue in loop 2 of both K1 and K2 (Figure 1C,D; W11 and W53), and used Trp fluorescence to monitor the partitioning of the toxin from the aqueous solution into the membrane environment ([Gupta et al., 2015]; [Ladokhin et al., 2000]; [Milescu et al., 2007]). When aqueous solutions of DkTx were excited at a wavelength of 280 nm, emission spectra with maxima at 353 nm were obtained (Figure 5A, left), as expected for Trp residues residing in such an environment. […] To quantify the extent of partitioning as a function of lipid concentration, we measured the relative fluorescence intensity in a blue-shifted region of the spectra (e.g. 320 nm) as a function of lipid concentration, and fit a partition function to the data to obtain a mole-fraction partition coefficient (Kx) of (2.3 ± 0.7) × 10^6, indicating an energetically favorable interaction of DkTx with lipid membranes (Figure 5A, right). This strong interaction of DkTx with membranes would facilitate binding of the toxin to the channel by increasing the local concentration of the toxin near the channel and by a reduction in the dimensionality of diffusion within the membrane ([Axelrod and Wang, 1994]).
Figure 5. Interaction of DkTx and toxin constructs with lipid membranes measured using Trp fluorescence. […] (A–E, right panel) Relative fluorescence intensity at 320 nm (F/F0) as a function of available lipid concentrations (60% of total lipid concentration). […] Interaction of K1-K2 chimeras with lipid membranes measured using Trp fluorescence. […] (A–D, right panel) Relative fluorescence intensity at 320 nm (F/F0) as a function of available lipid concentrations (60% of total lipid concentration). […]

T1 sequence (O35433 whole entry): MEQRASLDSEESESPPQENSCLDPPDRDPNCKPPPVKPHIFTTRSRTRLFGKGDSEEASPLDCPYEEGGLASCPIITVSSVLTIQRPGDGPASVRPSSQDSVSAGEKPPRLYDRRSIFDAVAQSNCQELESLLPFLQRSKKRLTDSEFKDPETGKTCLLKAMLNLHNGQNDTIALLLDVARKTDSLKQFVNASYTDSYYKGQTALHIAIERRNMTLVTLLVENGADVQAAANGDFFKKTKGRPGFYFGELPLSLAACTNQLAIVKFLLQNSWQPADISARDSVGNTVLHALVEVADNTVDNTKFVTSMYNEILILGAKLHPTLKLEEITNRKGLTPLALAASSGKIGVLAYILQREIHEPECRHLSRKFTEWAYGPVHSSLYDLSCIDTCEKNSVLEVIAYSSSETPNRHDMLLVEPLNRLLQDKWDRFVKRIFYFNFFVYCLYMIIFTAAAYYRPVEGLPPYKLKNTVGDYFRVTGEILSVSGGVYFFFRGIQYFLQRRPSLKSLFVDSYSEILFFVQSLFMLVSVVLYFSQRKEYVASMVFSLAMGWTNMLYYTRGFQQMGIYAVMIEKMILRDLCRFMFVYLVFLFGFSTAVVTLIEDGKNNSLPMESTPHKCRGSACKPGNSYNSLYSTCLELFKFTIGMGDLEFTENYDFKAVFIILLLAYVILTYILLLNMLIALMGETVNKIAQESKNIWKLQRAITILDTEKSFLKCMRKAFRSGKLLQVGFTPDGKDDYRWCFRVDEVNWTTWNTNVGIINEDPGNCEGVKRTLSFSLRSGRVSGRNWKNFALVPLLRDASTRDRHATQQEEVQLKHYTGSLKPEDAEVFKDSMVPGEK

B1: double-knot toxin (protein)
chain: DCAKEGEVCSWGKKCCDLDNFYCPMEFIPHCKKYKPYVPVTTNCAKEGEVCGWGSKCCHGLDCPLAFIPYCEKYR
notes: produced recombinantly
B1: in the series with rTRPV1 (HEK cells), the “dissociation from TRPV1 after toxin removal (in words)” value is recorded as “slow dissociation”. The “Fractional dissociation 1 min after toxin removal (current amplitude 1 min after toxin removal divided by steady-state current amplitude in presence of toxin)” value with rTRPV1 (TRPV1 in HEK cells, +120 mV from voltage ramps, 1 µM toxin, mean ± sem, n = 8 (DkTx), 5 (K1K1), 6 (K2K2), SEM) turned out to be 0.8 ± 0.05. Also, the “F/F0^max (relative fluorescence intensity at 320 nm when partitioning is saturated)” value in series [1] (Trp fluorescence, LUVs 1:1 POPC:POPG, 10 mM HEPES, 1 mM EDTA, pH 7.0, fit of partition function, ± SEM, n = 3 or 4, SEM) is 2.65 ± 0.08. For the same molecule, in series [1] (Trp fluorescence, excitation 280 nm, F/F0 at 320 nm, LUVs 1:1 POPC:POPG extruded through 100 nm, toxin 2 or 5 µM in 10 mM HEPES, 1 mM EDTA, pH 7.0, available lipid 60% of total, fit of partition function, ± SEM, n = 3 or 4, SEM), the “mole-fraction partition coefficient (Kx)” value is listed as “(2.3 ± 0.7) × 10^6”. For the same molecule, the “measured free energy of membrane partitioning (ΔG° = −RT lnKx)” value in series [1] (from measured Kx, LUVs 1:1 POPC:POPG) was -8.5 kcal/mol.
